Experimental findings from US20230151068A1 are described below.

This assay addresses biotinylated His-Avi-TEAD (194-411) (UniProt P28347). In words: SSM screen, enrichment after two rounds of sorting.
Regarding GSSDEYIERAKECCKKGDIQCCLRYFEESGDPNVMLICLFCP (designed binder) [P01S variant of SEQ ID NO: 1], the enrichment score is 0.13. In the case of GSPDEYIERAIECCKKGDIQCCLRYFEESGDPNVMLICLFCP (designed binder) [K09I variant of SEQ ID NO: 1] it was -3.03; in that of GSPDEYIARAKECCKKGDIQCCLRYFEESGDPNVMLICLFCP (designed binder) [E06A variant of SEQ ID NO: 1], -0.68. As for GSPDEYLERAKECCKKGDIQCCLRYFEESGDPNVMLICLFCP (designed binder) [I05L variant of SEQ ID NO: 1], the enrichment score is -0.38.

Turning to GSPDEVIERAKECCKKGDIQCCLRYFEESGDPNVMLICLFCP (designed binder) [Y04V variant of SEQ ID NO: 1], the enrichment score was -0.75. In the case of GSPDEYIEIAKECCKKGDIQCCLRYFEESGDPNVMLICLFCP (designed binder) [R07I variant of SEQ ID NO: 1] it was -3.98.

GSIDEYIERAKECCKKGDIQCCLRYFEESGDPNVMLICLFCP (designed binder) [P01I variant of SEQ ID NO: 1]: the enrichment score was -2.27. The value for GSPDEYTERAKECCKKGDIQCCLRYFEESGDPNVMLICLFCP (designed binder) [I05T variant of SEQ ID NO: 1] was -1.77.

For GSPVEYIERAKECCKKGDIQCCLRYFEESGDPNVMLICLFCP (designed binder) [D02V variant of SEQ ID NO: 1], the enrichment score was -2.34. With GSPDSYIERAKECCKKGDIQCCLRYFEESGDPNVMLICLFCP (designed binder) [E03S variant of SEQ ID NO: 1], the enrichment score was -0.41.

Consider GSPDLYIERAKECCKKGDIQCCLRYFEESGDPNVMLICLFCP (designed binder) [E03L variant of SEQ ID NO: 1], for which the enrichment score was determined as 0.32. In the case of GSPDEAIERAKECCKKGDIQCCLRYFEESGDPNVMLICLFCP (designed binder) [Y04A variant of SEQ ID NO: 1] it was 0.26; in that of GSPDEYILRAKECCKKGDIQCCLRYFEESGDPNVMLICLFCP (designed binder) [E06L variant of SEQ ID NO: 1], -0.4.

Consider GSPSEYIERAKECCKKGDIQCCLRYFEESGDPNVMLICLFCP (designed binder) [D02S variant of SEQ ID NO: 1], for which the enrichment score is -1.01. GSPIEYIERAKECCKKGDIQCCLRYFEESGDPNVMLICLFCP (designed binder) [D02I variant of SEQ ID NO: 1]: the enrichment score was -0.7. In the case of GSPDEYITRAKECCKKGDIQCCLRYFEESGDPNVMLICLFCP (designed binder) [E06T variant of SEQ ID NO: 1], the enrichment score was -0.92.

As for GSPDEYAERAKECCKKGDIQCCLRYFEESGDPNVMLICLFCP (designed binder) [I05A variant of SEQ ID NO: 1], the enrichment score is -1.2. Consider GSPDEYIERATECCKKGDIQCCLRYFEESGDPNVMLICLFCP (designed binder) [K09T variant of SEQ ID NO: 1], for which the enrichment score came to 2.68.

Regarding GSPDEIIERAKECCKKGDIQCCLRYFEESGDPNVMLICLFCP (designed binder) [Y04I variant of SEQ ID NO: 1], the enrichment score was -0.41. Turning to GSPDEYIIRAKECCKKGDIQCCLRYFEESGDPNVMLICLFCP (designed binder) [E06I variant of SEQ ID NO: 1], the enrichment score is -1.56. In the case of GSPDEYIERSKECCKKGDIQCCLRYFEESGDPNVMLICLFCP (designed binder) [A08S variant of SEQ ID NO: 1] it was -2.79; in that of GSPAEYIERAKECCKKGDIQCCLRYFEESGDPNVMLICLFCP (designed binder) [D02A variant of SEQ ID NO: 1], -1.43; in that of GSPDEYIERAKSCCKKGDIQCCLRYFEESGDPNVMLICLFCP (designed binder) [E10S variant of SEQ ID NO: 1], -2.47. For GSPDAYIERAKECCKKGDIQCCLRYFEESGDPNVMLICLFCP (designed binder) [E03A variant of SEQ ID NO: 1], the enrichment score is -2.02. For GSPDEYIETAKECCKKGDIQCCLRYFEESGDPNVMLICLFCP (designed binder) [R07T variant of SEQ ID NO: 1], the enrichment score was -4.07. Take GSPDEYIERAKICCKKGDIQCCLRYFEESGDPNVMLICLFCP (designed binder) [E10I variant of SEQ ID NO: 1]: the enrichment score is -0.65. The value for GSPTEYIERAKECCKKGDIQCCLRYFEESGDPNVMLICLFCP (designed binder) [D02T variant of SEQ ID NO: 1] was -0.52.

For GSPDEYIERASECCKKGDIQCCLRYFEESGDPNVMLICLFCP (designed binder) [K09S variant of SEQ ID NO: 1], the enrichment score was -0.91. The value for GSPDEYIEAAKECCKKGDIQCCLRYFEESGDPNVMLICLFCP (designed binder) [R07A variant of SEQ ID NO: 1] was 0.28; that for GSPDELIERAKECCKKGDIQCCLRYFEESGDPNVMLICLFCP (designed binder) [Y04L variant of SEQ ID NO: 1] was -1.81; that for GSPDEYIERAKACCKKGDIQCCLRYFEESGDPNVMLICLFCP (designed binder) [E10A variant of SEQ ID NO: 1] was -0.24. The value for GSPDEYIERAAECCKKGDIQCCLRYFEESGDPNVMLICLFCP (designed binder) [K09A variant of SEQ ID NO: 1] was -1.27; that for GSPDEYIERALECCKKGDIQCCLRYFEESGDPNVMLICLFCP (designed binder) [K09L variant of SEQ ID NO: 1] was -11.2.

Regarding GSPDEYISRAKECCKKGDIQCCLRYFEESGDPNVMLICLFCP (designed binder) [E06S variant of SEQ ID NO: 1], the enrichment score was -1.09. In the case of GSPDIYIERAKECCKKGDIQCCLRYFEESGDPNVMLICLFCP (designed binder) [E03I variant of SEQ ID NO: 1] it was -0.26.

On to GSADEYIERAKECCKKGDIQCCLRYFEESGDPNVMLICLFCP (designed binder) [P01A variant of SEQ ID NO: 1], for which the enrichment score was 0.36. In the case of GSTDEYIERAKECCKKGDIQCCLRYFEESGDPNVMLICLFCP (designed binder) [P01T variant of SEQ ID NO: 1] it was -0.57; in that of GSPDEYSERAKECCKKGDIQCCLRYFEESGDPNVMLICLFCP (designed binder) [I05S variant of SEQ ID NO: 1], -2.04. In the case of GSPLEYIERAKECCKKGDIQCCLRYFEESGDPNVMLICLFCP (designed binder) [D02L variant of SEQ ID NO: 1] it was -3.53; in that of GSPDEYIESAKECCKKGDIQCCLRYFEESGDPNVMLICLFCP (designed binder) [R07S variant of SEQ ID NO: 1], 0.31; in that of GSPDEYIERIKECCKKGDIQCCLRYFEESGDPNVMLICLFCP (designed binder) [A08I variant of SEQ ID NO: 1], -8.31. In the case of GSLDEYIERAKECCKKGDIQCCLRYFEESGDPNVMLICLFCP (designed binder) [P01L variant of SEQ ID NO: 1] it was -2.9; in that of GSPDESIERAKECCKKGDIQCCLRYFEESGDPNVMLICLFCP (designed binder) [Y04S variant of SEQ ID NO: 1], -0.74.

As for GSVDEYIERAKECCKKGDIQCCLRYFEESGDPNVMLICLFCP (designed binder) [P01V variant of SEQ ID NO: 1], the enrichment score is -0.59. The value for GSPDEYIERTKECCKKGDIQCCLRYFEESGDPNVMLICLFCP (designed binder) [A08T variant of SEQ ID NO: 1] was -3.84. The value for GSPDEYIERAKLCCKKGDIQCCLRYFEESGDPNVMLICLFCP (designed binder) [E10L variant of SEQ ID NO: 1] was -1.83; that for GSPDTYIERAKECCKKGDIQCCLRYFEESGDPNVMLICLFCP (designed binder) [E03T variant of SEQ ID NO: 1] was 1.19.

In the case of GSPDVYIERAKECCKKGDIQCCLRYFEESGDPNVMLICLFCP (designed binder) [E03V variant of SEQ ID NO: 1], the enrichment score is -1.39. For the molecule GSPDEYIERLKECCKKGDIQCCLRYFEESGDPNVMLICLFCP (designed binder) [A08L variant of SEQ ID NO: 1], the enrichment score was -9.93.

In the case of GSPDEYIELAKECCKKGDIQCCLRYFEESGDPNVMLICLFCP (designed binder) [R07L variant of SEQ ID NO: 1], the enrichment score was -0.39. In the case of GSPDEYIERAKTCCKKGDIQCCLRYFEESGDPNVMLICLFCP (designed binder) [E10T variant of SEQ ID NO: 1] it was -1.57. In the case of GSPDETIERAKECCKKGDIQCCLRYFEESGDPNVMLICLFCP (designed binder) [Y04T variant of SEQ ID NO: 1] it was -0.87.
